± gives the standard deviation of the averaged measurements.
B1: library; a variant is named by its letters at N, in order (parent)
chain: GCUGUCACCGAGAAACUGUGAAGUAUAUCUUAAACCUGGGCACUUAAAAGAUAUAUGGAGUUAGUAGUGCAACCUGCUCGGUCUGAUGAGUCCNNNNNNGGACGAAACAGC

Assays:
cyclic di-GMP [1] = variants of: B1; assay: normalized RNA/DNA level without ligand (relative to sTRSVctl = 100) (log10 (% of sTRSVctl)); HEK293T; ligand: cyclic di-GMP (c-di-GMP-II aptamer); higher = less ribozyme self-cleavage, higher mRNA level; conditions: reporter: mCherry (pCS4076), ligand present: no
Summary of the method: (§1)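 Library plasmids carrying ribozyme switches linked to mCherry, or to eGFP in some ligand experiments, were transfected into HEK293T at 4 µg per 6-well well, with any ligand added 1 h earlier. Seventy-two hours on, total RNA was extracted with EDTA and reverse-transcribed, amplified, barcoded and sequenced. RNA level was RNA over DNA reads normalized to a spiked-in non-cleaving sequence or to the top sequences, then scaled and log-transformed. The top set was 25 sequences, the transform was ×100 and log10, and sequences needed ≥100 DNA reads.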

cyclic di-GMP [2] = variants of: B1; assay: normalized RNA/DNA level with ligand (relative to sTRSVctl = 100) (log10 (% of sTRSVctl)); HEK293T; ligand: cyclic di-GMP (c-di-GMP-II aptamer); ligand concentration (+) RNA-Seq: 1 mM; higher = less ribozyme self-cleavage, higher mRNA level; conditions: reporter: mCherry (pCS4076), ligand present: yes
Summary of the method: as §1

| Variant | normalized RNA/DNA level without ligand (log10) (cyclic di-GMP [1]) | normalized RNA/DNA level with ligand (log10) (cyclic di-GMP [2]) |
| --- | --- | --- |
| AAUAUC | 1.67 ± 0.022 | 1.81 ± 0.079 |
| AAUAUG | 1.61 ± 0.06 | 1.74 ± 0.11 |
| AAUAUU | 1.667 ± 0.015 | 1.83 ± 0.083 |
| GAGUUC | 1.81 ± 0.069 | 1.9 ± 0.06 |
| GAGUUU | 1.79 ± 0.031 | 1.87 ± 0.11 |
| GAUCUA | 1.67 ± 0.032 | 1.81 ± 0.097 |
| GAUCUG | 1.708 ± 0.016 | 1.84 ± 0.07 |
| GAUCUC | 1.75 ± 0.02 | 1.89 ± 0.15 |
| GAUCUU | 1.673 ± 0.0037 | 1.8 ± 0.091 |
| AAGCUC | 1.74 ± 0.012 | 1.89 ± 0.13 |
| AAGCUG | 1.64 ± 0.019 | 1.79 ± 0.076 |
| AAGCUU | 1.7 ± 0.022 | 1.84 ± 0.073 |
| AAGCUA | 1.56 ± 0.024 | 1.72 ± 0.12 |
| CAUGAU | 1.57 ± 0.027 | 1.73 ± 0.13 |
| CAUGAG | 1.714 ± 0.012 | 1.84 ± 0.074 |
| AAUAGC | 1.62 ± 0.047 | 1.8 ± 0.1 |
| UAUGAG | 1.653 ± 0.0081 | 1.82 ± 0.12 |
| GAGCUA | 1.79 ± 0.038 | 1.88 ± 0.11 |
| GAGCUC | 1.83 ± 0.052 | 1.91 ± 0.15 |
| GAGCUU | 1.8 ± 0.045 | 1.9 ± 0.14 |
| CAGGCU | 1.8 ± 0.012 | 1.9 ± 0.11 |
| CAGGCG | 1.75 ± 0.091 | 1.88 ± 0.13 |
| CAGGCA | 1.615 ± 0.0084 | 1.71 ± 0.13 |
| CAUAAC | 1.62 ± 0.028 | 1.75 ± 0.1 |

| Variant | normalized RNA/DNA level without ligand (log10) (cyclic di-GMP [1]) | normalized RNA/DNA level with ligand (log10) (cyclic di-GMP [2]) |
| --- | --- | --- |
| CAUAAG | 1.706 ± 0.013 | 1.82 ± 0.1 |
| CAGGGC | 1.73 ± 0.044 | 1.86 ± 0.16 |
| CAGGGA | 1.53 ± 0.13 | 1.67 ± 0.067 |
| CAGGGG | 1.63 ± 0.032 | 1.74 ± 0.075 |
| CAGGGU | 1.673 ± 0.014 | 1.82 ± 0.096 |
| CAUAGG | 1.688 ± 0.011 | 1.85 ± 0.093 |
| CAUAGC | 1.73 ± 0.062 | 1.84 ± 0.13 |
| CAUAGA | 1.54 ± 0.073 | 1.69 ± 0.031 |
| CAUACA | 1.38 ± 0.11 | 1.58 ± 0.1 |
| CAUACG | 1.81 ± 0.051 | 1.91 ± 0.052 |
| CAUACU | 1.51 ± 0.044 | 1.7 ± 0.12 |
| UAGGGG | 1.563 ± 0.0094 | 1.72 ± 0.079 |
| UAGGGC | 1.64 ± 0.035 | 1.78 ± 0.1 |
| AAGUGU | 1.6 ± 0.034 | 1.76 ± 0.14 |
| AAGUGA | 1.38 ± 0.19 | 1.5546 ± 0.00035 |
| AAGUGC | 1.666 ± 0.0039 | 1.82 ± 0.14 |
| AAGUGG | 1.68 ± 0.033 | 1.78 ± 0.12 |
| AAGUAA | 1.45 ± 0.12 | 1.63 ± 0.089 |
| AAGUAC | 1.657 ± 0.007 | 1.8 ± 0.14 |
| AAGUAU | 1.62 ± 0.032 | 1.8 ± 0.095 |
| AAGUAG | 1.68 ± 0.024 | 1.77 ± 0.12 |
| AAGGAG | 1.54 ± 0.14 | 1.67 ± 0.053 |
| AAGGAC | 1.53 ± 0.1 | 1.73 ± 0.072 |
| AAGGAU | 1.49 ± 0.097 | 1.7 ± 0.096 |

| Variant | normalized RNA/DNA level without ligand (log10) (cyclic di-GMP [1]) | normalized RNA/DNA level with ligand (log10) (cyclic di-GMP [2]) |
| --- | --- | --- |
| GAGGUC | 1.68 ± 0.042 | 1.82 ± 0.11 |
| GAGGUG | 1.74 ± 0.049 | 1.84 ± 0.087 |
| GAGGUU | 1.73 ± 0.072 | 1.85 ± 0.083 |
| GAGGUA | 1.698 ± 0.0042 | 1.77 ± 0.1 |
| CAGGUG | 1.62 ± 0.056 | 1.76 ± 0.084 |
| CAGGUA | 1.57 ± 0.081 | 1.67 ± 0.11 |
| CAGGUU | 1.798 ± 0.0047 | 1.88 ± 0.053 |
| CAGGUC | 1.76 ± 0.021 | 1.84 ± 0.094 |
| CAGUAC | 1.6 ± 0.018 | 1.74 ± 0.14 |
| CAGUAG | 1.724 ± 0.013 | 1.83 ± 0.096 |
| UAUAAC | 1.697 ± 0.015 | 1.85 ± 0.12 |
| UAUAAU | 1.66 ± 0.063 | 1.8 ± 0.099 |
| UAUAAG | 1.66 ± 0.03 | 1.82 ± 0.14 |
| AAUCAC | 1.71 ± 0.027 | 1.83 ± 0.096 |
| AAUCAU | 1.64 ± 0.02 | 1.78 ± 0.093 |
| AAUCAA | 1.51 ± 0.1 | 1.73 ± 0.078 |
| AAUCAG | 1.61 ± 0.057 | 1.76 ± 0.026 |
| CAUCGC | 1.783 ± 0.015 | 1.87 ± 0.043 |
| CAUCGG | 1.78 ± 0.048 | 1.84 ± 0.12 |
| CAUCGU | 1.74 ± 0.095 | 1.83 ± 0.098 |
| AAUACA | 1.56 ± 0.017 | 1.74 ± 0.1 |
| AAUACU | 1.71 ± 0.023 | 1.84 ± 0.085 |
| AAUACC | 1.71 ± 0.031 | 1.86 ± 0.069 |
| CAGGAU | 1.64 ± 0.094 | 1.78 ± 0.068 |

| Variant | normalized RNA/DNA level without ligand (log10) (cyclic di-GMP [1]) | normalized RNA/DNA level with ligand (log10) (cyclic di-GMP [2]) |
| --- | --- | --- |
| CAGGAG | 1.64 ± 0.091 | 1.79 ± 0.098 |
| CAGGAC | 1.715 ± 0.017 | 1.81 ± 0.1 |
| CAUCCG | 1.82 ± 0.035 | 1.88 ± 0.09 |
| CAUCCU | 1.6 ± 0.03 | 1.77 ± 0.1 |
| CAGUCG | 1.76 ± 0.067 | 1.9 ± 0.12 |
| CAGUCU | 1.52 ± 0.048 | 1.68 ± 0.12 |
| CAGUCA | 1.41 ± 0.1 | 1.52 ± 0.13 |
| AAGUCC | 1.76 ± 0.051 | 1.84 ± 0.085 |
| AAGUCA | 1.63 ± 0.06 | 1.77 ± 0.14 |
| AAGUCU | 1.68 ± 0.058 | 1.8 ± 0.12 |
| AAGUCG | 1.62 ± 0.031 | 1.79 ± 0.089 |
| AAUCUU | 1.74 ± 0.09 | 1.86 ± 0.1 |
| AAUCUC | 1.74 ± 0.032 | 1.86 ± 0.075 |
| AAUCUG | 1.62 ± 0.031 | 1.8 ± 0.061 |
| AAUCUA | 1.55 ± 0.055 | 1.75 ± 0.071 |
| AAGUUC | 1.6603 ± 0.0013 | 1.84 ± 0.11 |
| AAGUUU | 1.724 ± 0.0032 | 1.88 ± 0.076 |
| AAGUUG | 1.56 ± 0.072 | 1.75 ± 0.11 |
| UAGUCU | 1.707 ± 0.015 | 1.84 ± 0.053 |
| UAGUCA | 1.768 ± 0.017 | 1.91 ± 0.076 |
| UAGUCG | 1.8 ± 0.021 | 1.91 ± 0.14 |
| CAGUGU | 1.718 ± 0.0057 | 1.84 ± 0.12 |
| CAGUGG | 1.68 ± 0.022 | 1.86 ± 0.065 |
| CAGUGC | 1.71 ± 0.05 | 1.81 ± 0.11 |

| Variant | normalized RNA/DNA level without ligand (log10) (cyclic di-GMP [1]) | normalized RNA/DNA level with ligand (log10) (cyclic di-GMP [2]) |
| --- | --- | --- |
| CAGUGA | 1.52 ± 0.043 | 1.7 ± 0.12 |
| GAUCGG | 1.747 ± 0.013 | 1.82 ± 0.034 |
| GAUCGC | 1.74 ± 0.019 | 1.86 ± 0.051 |
| GAUCGU | 1.65 ± 0.046 | 1.81 ± 0.087 |
| AAGCGC | 1.669 ± 0.011 | 1.84 ± 0.13 |
| AAGCGU | 1.56 ± 0.021 | 1.73 ± 0.11 |
| AAGCGG | 1.81 ± 0.035 | 1.88 ± 0.069 |
| UAUCAU | 1.656 ± 0.0018 | 1.81 ± 0.12 |
| UAUCAA | 1.7 ± 0.031 | 1.83 ± 0.11 |
| UAUCAG | 1.72 ± 0.028 | 1.84 ± 0.13 |
| CAUAUU | 1.45 ± 0.13 | 1.64 ± 0.067 |
| CAUAUC | 1.63 ± 0.069 | 1.79 ± 0.047 |
| CAUAUG | 1.718 ± 0.017 | 1.81 ± 0.053 |
| GAGGCG | 1.817 ± 0.018 | 1.9 ± 0.14 |
| GAGGCC | 1.7859 ± 0.0011 | 1.89 ± 0.048 |
| GAGGCU | 1.83 ± 0.046 | 1.87 ± 0.068 |
| GAGGCA | 1.81 ± 0.039 | 1.86 ± 0.089 |
| GAUACC | 1.758 ± 0.0066 | 1.89 ± 0.066 |
| GAUACU | 1.7 ± 0.025 | 1.82 ± 0.068 |
| GAUACG | 1.62 ± 0.019 | 1.76 ± 0.12 |

From the supplement of paper PMC6757056
